Molecular target: T1, soluble extracellular immunoglobulin-like domain of FcμR (human)
T1 construct: FcμR (FAIM3, TOSO), human; 390-aa polypeptide with a 17-aa signal peptide and a 107-aa Ig-like domain; The receptor clone came from Prof; H. Kubagawa; also called sIgFcμR; not shown: His tag (from the nickel column chromatography)
T1 sequence (O60667 whole entry, looked up): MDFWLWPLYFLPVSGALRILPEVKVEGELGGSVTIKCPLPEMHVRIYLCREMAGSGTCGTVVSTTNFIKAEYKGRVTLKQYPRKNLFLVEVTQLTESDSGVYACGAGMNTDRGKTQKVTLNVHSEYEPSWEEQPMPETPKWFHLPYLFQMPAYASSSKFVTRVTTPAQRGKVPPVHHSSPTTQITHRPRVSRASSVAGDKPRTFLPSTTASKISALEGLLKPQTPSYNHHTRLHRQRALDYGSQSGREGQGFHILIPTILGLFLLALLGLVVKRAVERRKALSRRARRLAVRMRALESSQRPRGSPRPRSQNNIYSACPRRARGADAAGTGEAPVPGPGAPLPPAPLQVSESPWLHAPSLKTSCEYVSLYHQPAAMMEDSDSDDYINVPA
Assay: SPR; Biacore T200, 25 °C, 0.01 M HEPES, 0.15 M NaCl, 0.005% Surfactant P20, pH 7.4; IgM, IgM-Fc, Fcμ3-4 or IgM-Fc mutants immobilised on CM5 by amine coupling; analyte sIgFcμR 0.25 μM to 12 μM; steady state, 1:1 binding model
Conditions: both partners purified

B1: Fcμ3-4, dimer of Cμ3-Cμ4 domains (domain or fragment)
chain: DQDTAIRVFAIPPSFASIFLTKSTKLTCLVTDLTTYDSVTISWTRQNGEAVKTHTNISESHPNATFSAVGEASISEDDWNSGERFTCTVTHTDLPSPLKQTISRPKGVALHRPDVYLLPPAREQLNLRESATITCLVTGFSPADVFVQWMQRGQPLSPEKYVTSAPMPEPQAPGRYFAHSILTVSEEEWNTGETYTCVVAHEALPNRVTERTVDKSTGK
Kd: 1090 nM

From PMC6905151, “Mapping of the binding site for FcμR in human IgM-Fc” (Biochimica et Biophysica Acta. Proteins and Proteomics, 2020)
